B1: peptide HD2 (from tick evasin EVA4) / CXCL13 (biotinylated, synthetic) (parent complex)
chain 1: EEDDYTAYAPLTCYFT
chain 2: VLEVYYTSLRCRCVQESSVFIPRRFIDRIQILPRGNGCPRKEIIVWKKNKSIVCVDPQAEWIQRMMEVLRKRSSSTLPVPVFKRKIP

Variants of: B1
For chain 1 Y14W, the enrichment was -2.89 log2 (difference from the parental peptide). With chain 1 D3G the enrichment was -5.23 log2 (difference from the parental peptide). chain 1 Y8I was tested, and the enrichment was -4.99 log2 (difference from the parental peptide). For chain 1 A7V, the enrichment was 0.636 log2 (difference from the parental peptide). chain 1 L11R was tested, and the enrichment was -5.68 log2 (difference from the parental peptide). chain 1 E1H was tested, and the enrichment was -3.17 log2 (difference from the parental peptide). With chain 1 D4V the enrichment was -5.82 log2 (difference from the parental peptide). In the case of chain 1 E2A, the enrichment is reported as -1.7 log2 (difference from the parental peptide). In the case of chain 1 T12C, the enrichment is reported as -5.24 log2 (difference from the parental peptide). In the case of chain 1 P10A, the enrichment is reported as -4.03 log2 (difference from the parental peptide). chain 1 T6L was tested, and the enrichment was 1.48 log2 (difference from the parental peptide). With chain 1 E2N the enrichment was -3.27 log2 (difference from the parental peptide). In the case of chain 1 E2T, the enrichment is reported as -3.42 log2 (difference from the parental peptide). In the case of chain 1 Y8W, the enrichment is reported as 2.6 log2 (difference from the parental peptide). With chain 1 A9T the enrichment was -1.4 log2 (difference from the parental peptide). With chain 1 E1Q the enrichment was -0.204 log2 (difference from the parental peptide). With chain 1 Y8F the enrichment was 0.328 log2 (difference from the parental peptide). In the case of chain 1 T16P, the enrichment is reported as -0.922 log2 (difference from the parental peptide). For chain 1 T12S, the enrichment was -6.76 log2 (difference from the parental peptide). chain 1 D3A was tested, and the enrichment was -5.8 log2 (difference from the parental peptide). In the case of chain 1 A7K, the enrichment is reported as -1.87 log2 (difference from the parental peptide). For chain 1 P10L, the enrichment was -9.28 log2 (difference from the parental peptide). With chain 1 Y8V the enrichment was -4.22 log2 (difference from the parental peptide). In the case of chain 1 T6I, the enrichment is reported as -3.55 log2 (difference from the parental peptide). chain 1 E1I was tested, and the enrichment was -1.63 log2 (difference from the parental peptide). With chain 1 A7Y the enrichment was 3.99 log2 (difference from the parental peptide). For chain 1 E1V, the enrichment was -2.3 log2 (difference from the parental peptide). In the case of chain 1 T12Q, the enrichment is reported as -3.59 log2 (difference from the parental peptide). With chain 1 L11M the enrichment was 3.77 log2 (difference from the parental peptide). With chain 1 A9R the enrichment was -4.49 log2 (difference from the parental peptide). With chain 1 L11C the enrichment was -5.19 log2 (difference from the parental peptide). In the case of chain 1 C13Y, the enrichment is reported as -6.52 log2 (difference from the parental peptide). chain 1 T6W was tested, and the enrichment was 5.97 log2 (difference from the parental peptide). chain 1 T16N was tested, and the enrichment was -0.837 log2 (difference from the parental peptide). With chain 1 F15A the enrichment was -4.66 log2 (difference from the parental peptide). With chain 1 T16I the enrichment was -0.117 log2 (difference from the parental peptide). In the case of chain 1 A7R, the enrichment is reported as -1.49 log2 (difference from the parental peptide). With chain 1 F15T the enrichment was -5.1 log2 (difference from the parental peptide). chain 1 E1G was tested, and the enrichment was -1.69 log2 (difference from the parental peptide). For chain 1 F15E, the enrichment was -7.7 log2 (difference from the parental peptide). For chain 1 Y8D, the enrichment was 0.221 log2 (difference from the parental peptide). With chain 1 T16M the enrichment was 0.915 log2 (difference from the parental peptide). For chain 1 D4A, the enrichment was -6.85 log2 (difference from the parental peptide). With chain 1 F15V the enrichment was -2.57 log2 (difference from the parental peptide). In the case of chain 1 F15M, the enrichment is reported as -4.67 log2 (difference from the parental peptide). In the case of chain 1 T6V, the enrichment is reported as -2.98 log2 (difference from the parental peptide). chain 1 E1L was tested, and the enrichment was -1.96 log2 (difference from the parental peptide). chain 1 F15G was tested, and the enrichment was -9.13 log2 (difference from the parental peptide). For chain 1 T6C, the enrichment was -9.9 log2 (difference from the parental peptide). For chain 1 A7E, the enrichment was 5.25 log2 (difference from the parental peptide). For chain 1 T12H, the enrichment was -5.34 log2 (difference from the parental peptide). chain 1 D4S was tested, and the enrichment was -5.37 log2 (difference from the parental peptide). For chain 1 E1R, the enrichment was -5.75 log2 (difference from the parental peptide). With chain 1 Y5S the enrichment was -3.07 log2 (difference from the parental peptide). For chain 1 D4Q, the enrichment was -2.67 log2 (difference from the parental peptide). chain 1 A7L was tested, and the enrichment was 1.64 log2 (difference from the parental peptide). chain 1 T16E was tested, and the enrichment was 1.77 log2 (difference from the parental peptide). In the case of chain 1 Y5F, the enrichment is reported as -0.242 log2 (difference from the parental peptide). With chain 1 T6R the enrichment was -1.88 log2 (difference from the parental peptide). chain 1 A9S was tested, and the enrichment was -1.23 log2 (difference from the parental peptide). With chain 1 C13P the enrichment was -7.37 log2 (difference from the parental peptide). In the case of chain 1 A7Q, the enrichment is reported as 3.15 log2 (difference from the parental peptide). In the case of chain 1 D4I, the enrichment is reported as -4.76 log2 (difference from the parental peptide). For chain 1 T16K, the enrichment was -6.05 log2 (difference from the parental peptide). With chain 1 F15P the enrichment was -3.33 log2 (difference from the parental peptide). chain 1 Y5N was tested, and the enrichment was -2.57 log2 (difference from the parental peptide). In the case of chain 1 C13T, the enrichment is reported as -5.19 log2 (difference from the parental peptide). chain 1 P10M was tested, and the enrichment was -7.27 log2 (difference from the parental peptide). For chain 1 F15W, the enrichment was -3.2 log2 (difference from the parental peptide). For chain 1 F15C, the enrichment was -7.62 log2 (difference from the parental peptide). With chain 1 D3F the enrichment was -4.35 log2 (difference from the parental peptide). chain 1 P10G was tested, and the enrichment was 1.04 log2 (difference from the parental peptide). For chain 1 T16L, the enrichment was -0.207 log2 (difference from the parental peptide). For chain 1 C13N, the enrichment was -4.98 log2 (difference from the parental peptide). With chain 1 F15L the enrichment was -2.76 log2 (difference from the parental peptide). For chain 1 T12N, the enrichment was -4.95 log2 (difference from the parental peptide). With chain 1 D4M the enrichment was -5.4 log2 (difference from the parental peptide). With chain 1 T12L the enrichment was -1.72 log2 (difference from the parental peptide). chain 1 T16V was tested, and the enrichment was -0.466 log2 (difference from the parental peptide). With chain 1 D3E the enrichment was 0.606 log2 (difference from the parental peptide). chain 1 A7S was tested, and the enrichment was 2.57 log2 (difference from the parental peptide). With chain 1 C13S the enrichment was -4.26 log2 (difference from the parental peptide). In the case of chain 1 E1F, the enrichment is reported as -1.39 log2 (difference from the parental peptide). chain 1 T6D was tested, and the enrichment was 5.14 log2 (difference from the parental peptide). In the case of chain 1 D4L, the enrichment is reported as -4.8 log2 (difference from the parental peptide). With chain 1 Y8L the enrichment was -2.2 log2 (difference from the parental peptide). In the case of chain 1 T6H, the enrichment is reported as 0.439 log2 (difference from the parental peptide). chain 1 A9I was tested, and the enrichment was -5.77 log2 (difference from the parental peptide). With chain 1 Y8N the enrichment was -3.32 log2 (difference from the parental peptide). For chain 1 Y8Q, the enrichment was -5.13 log2 (difference from the parental peptide). For chain 1 E2D, the enrichment was 1.8 log2 (difference from the parental peptide). chain 1 Y5Q was tested, and the enrichment was -3.13 log2 (difference from the parental peptide). In the case of chain 1 E1Y, the enrichment is reported as 0.38 log2 (difference from the parental peptide). In the case of chain 1 T6Q, the enrichment is reported as 1.51 log2 (difference from the parental peptide). For chain 1 L11S, the enrichment was -8.97 log2 (difference from the parental peptide). In the case of chain 1 T6E, the enrichment is reported as 4.71 log2 (difference from the parental peptide). For chain 1 Y14C, the enrichment was -6.09 log2 (difference from the parental peptide). With chain 1 T16W the enrichment was -0.0649 log2 (difference from the parental peptide). In the case of chain 1 Y8M, the enrichment is reported as -1.68 log2 (difference from the parental peptide). For chain 1 E1W, the enrichment was -0.426 log2 (difference from the parental peptide). In the case of chain 1 T6A, the enrichment is reported as 1.86 log2 (difference from the parental peptide). In the case of chain 1 T6N, the enrichment is reported as 2.54 log2 (difference from the parental peptide). For chain 1 A9M, the enrichment was -0.268 log2 (difference from the parental peptide). For chain 1 C13Q, the enrichment was -8.15 log2 (difference from the parental peptide). chain 1 C13A was tested, and the enrichment was -7.08 log2 (difference from the parental peptide). In the case of chain 1 E2M, the enrichment is reported as -1.37 log2 (difference from the parental peptide). With chain 1 T16Q the enrichment was -1.21 log2 (difference from the parental peptide). For chain 1 Y5E, the enrichment was -0.259 log2 (difference from the parental peptide). In the case of chain 1 T16H, the enrichment is reported as 0.0142 log2 (difference from the parental peptide). For chain 1 F15I, the enrichment was -5.03 log2 (difference from the parental peptide). With chain 1 Y8T the enrichment was -4.45 log2 (difference from the parental peptide). chain 1 A9G was tested, and the enrichment was 0.486 log2 (difference from the parental peptide). In the case of chain 1 E2V, the enrichment is reported as -1.21 log2 (difference from the parental peptide). In the case of chain 1 F15R, the enrichment is reported as -6.31 log2 (difference from the parental peptide). chain 1 E1M was tested, and the enrichment was -0.674 log2 (difference from the parental peptide). chain 1 D3N was tested, and the enrichment was -4.32 log2 (difference from the parental peptide). In the case of chain 1 E2H, the enrichment is reported as -3.83 log2 (difference from the parental peptide). With chain 1 A7D the enrichment was 5.88 log2 (difference from the parental peptide). With chain 1 P10S the enrichment was -4.38 log2 (difference from the parental peptide). In the case of chain 1 L11H, the enrichment is reported as -5.03 log2 (difference from the parental peptide). With chain 1 L11N the enrichment was -7.22 log2 (difference from the parental peptide). chain 1 Y5L was tested, and the enrichment was -1.23 log2 (difference from the parental peptide). For chain 1 T6P, the enrichment was -0.391 log2 (difference from the parental peptide). With chain 1 A7N the enrichment was 2.99 log2 (difference from the parental peptide). chain 1 A9W was tested, and the enrichment was 1.81 log2 (difference from the parental peptide). chain 1 D3I was tested, and the enrichment was -5.63 log2 (difference from the parental peptide). In the case of chain 1 E2Q, the enrichment is reported as -2.09 log2 (difference from the parental peptide). For chain 1 D4P, the enrichment was -1.45 log2 (difference from the parental peptide). For chain 1 D3S, the enrichment was -3.94 log2 (difference from the parental peptide). In the case of chain 1 T12A, the enrichment is reported as -5.98 log2 (difference from the parental peptide). In the case of chain 1 T6G, the enrichment is reported as 4.13 log2 (difference from the parental peptide). chain 1 D3P was tested, and the enrichment was -5.29 log2 (difference from the parental peptide). In the case of chain 1 A7H, the enrichment is reported as 0.018 log2 (difference from the parental peptide). In the case of chain 1 D4E, the enrichment is reported as -0.811 log2 (difference from the parental peptide). chain 1 E1N was tested, and the enrichment was -1.5 log2 (difference from the parental peptide). In the case of chain 1 D3M, the enrichment is reported as -5.03 log2 (difference from the parental peptide). With chain 1 Y8G the enrichment was -3.39 log2 (difference from the parental peptide). For chain 1 T16R, the enrichment was -7.96 log2 (difference from the parental peptide). For chain 1 L11A, the enrichment was -7.28 log2 (difference from the parental peptide). In the case of chain 1 A7T, the enrichment is reported as 2.08 log2 (difference from the parental peptide). In the case of chain 1 T6K, the enrichment is reported as -2.94 log2 (difference from the parental peptide). chain 1 P10D was tested, and the enrichment was 0.396 log2 (difference from the parental peptide). With chain 1 T16F the enrichment was -1.23 log2 (difference from the parental peptide). With chain 1 E1D the enrichment was 2.17 log2 (difference from the parental peptide). chain 1 Y5H was tested, and the enrichment was -5.1 log2 (difference from the parental peptide). With chain 1 T16G the enrichment was 2.07 log2 (difference from the parental peptide). chain 1 D4G was tested, and the enrichment was -5 log2 (difference from the parental peptide). In the case of chain 1 T12D, the enrichment is reported as -5.43 log2 (difference from the parental peptide). In the case of chain 1 T6M, the enrichment is reported as 3.02 log2 (difference from the parental peptide). In the case of chain 1 C13L, the enrichment is reported as -10.1 log2 (difference from the parental peptide).

— publication PMC11969024 (2025)
